Paper PMC2112603 (The Journal of Cell Biology, 1983)

Molecular target: F-actin from chicken breast muscle (chicken, UniProt P68139 1-377)
Test: co-sedimentation

- binding result: binds
B1: 110-kdalton protein-calmodulin complex (complex)
chain 1: MEATTSLLDAAAVGDLVMLDPLSEESLLRTLQERFSRGEIYTYIGEVVISVNPYKPLPIYTPEKVEEYHNCNFFAVKPHIYAIADDAYRSLRDRDRDQCILITGESGAGKTEASKLVMSYVAAVSSKGEEVDKVKEQLLQSNPVLEAFGNAKTIRNDNSSRFGKYMDVEFDFKGDPLGGVISNYLLEKSRIVRHVKGERNFHIFYQLLAGGSAQLLQQLKLRPDCSHYGYLNHEKSVLPGMDDAANFRAMQDAMAIIGFAPAEVTALLEVTAVVLKLGNVKLSSCFQASGMEASSITEPRELQEISQLIGLDPSTLEQALCSRTVKVRDESVLTALSVSQGYYGRDALAKNIYSRLFDWLVNRINTSIQVKPGKQRKVMGVLDIYGFEIFQDNGFEQFIINYCNEKLQQIFILMTLKEEQEEYVREGIQWTPVEFFDNSIICDLIENSKVGILAMLDEECLRPGTVNEDTFITKLNQIFASHKRYESKETLNAKHVTDVSLPLRCFRIHHYAGKVTYNVTGFIEKNNDLLFRDLSQAMWAARHTLLRSLFPEGDPQRPSLKLPPTTGSQFKASVATLMKNLYSKNPNYIRCIKPNDTKTAMLFTPDLVLAQVRYLGLMENVRVRRAGYAFRQLYQPFLERYKMLSRKTWPRWTGGDREGAEVLLAELKFPPEELAYGHTKIFIRSPRTLFDLEKRRQQRVAELATLIQKMFRGWCCRKRYQLMRKSQILISAWFRGHMQRNRYKQMKRSVLLLQAYARGWKTRRMYRRYFRSDACTRLSNFIYRRMVQKYLMGLQKNLPPMAVLDRTWPPAPYKFLSDANQELKSIFYRWKCKKYREQLTPQQRAMLQAKLCASELFKDKKALYAQSLQQPFRGEYLGLTQNRKYQKLQAVAKDKLVMAEAVQKVNRANGKTVPRLLLLTTEHLVLADPKAAQPKMVLSLCDIQGASVSRFSDGLLALHLKETSTAGGKGDLLLVSPHLIELVTRLHQTLMDATAQALPLSIADQFSTRFPKGDVAVTVVESAKGGGDVPVCKKRGSHKMEILVH
chain 2: […]
